Measured values taken from patent publication US20220056517A1 (OXFORD NANOPORE TECHNOLOGIES, published 2022).

What was measured:
[1] = target: T1, CsgG Y51A/F56Q/N91R/K94Q/R97W-del(V105-I107) pore containing the C terminal strep tag (E. coli, UniProt P0AEA2 16-277); assay: pore 1; in vitro reconstitution; DNA translocation, signal:noise
T1 construct: Oligomeric CsgG pore; not shown: C-terminal Strep tag
T1 chain: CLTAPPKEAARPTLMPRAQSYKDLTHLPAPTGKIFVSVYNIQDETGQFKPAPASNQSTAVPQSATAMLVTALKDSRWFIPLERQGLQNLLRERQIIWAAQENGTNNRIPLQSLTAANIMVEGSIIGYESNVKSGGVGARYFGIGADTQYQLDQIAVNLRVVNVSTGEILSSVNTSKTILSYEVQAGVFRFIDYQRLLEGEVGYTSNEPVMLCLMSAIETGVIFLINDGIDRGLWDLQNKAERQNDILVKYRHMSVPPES

[2] = target: T2, CsgG Y51A/N55I/F56Q/N91R/K94Q/R97W-del(V105-I107) pore containing the C terminal strep tag (E. coli, UniProt P0AEA2 16-277); assay: pore 2; in vitro reconstitution; DNA translocation, signal:noise
T2 construct: also called Y51A/N551/F56Q/N91R/K94Q/R97W-del(V105-I107) (sic); not shown: C-terminal Strep tag
T2 chain: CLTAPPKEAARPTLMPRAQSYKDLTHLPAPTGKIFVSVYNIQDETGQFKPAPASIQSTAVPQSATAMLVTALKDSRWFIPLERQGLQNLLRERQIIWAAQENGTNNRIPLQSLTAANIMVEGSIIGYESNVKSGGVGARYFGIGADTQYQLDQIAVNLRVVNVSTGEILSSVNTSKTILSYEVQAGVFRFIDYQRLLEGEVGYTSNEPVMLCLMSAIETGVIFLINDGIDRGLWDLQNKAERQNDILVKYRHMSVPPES

[3] = target: T3, CsgG Y51A/F56A/N91R/K94Q/R97W-del(V105-I107) pore containing the C terminal strep tag (E. coli, UniProt P0AEA2 16-277); assay: pore 4; in vitro reconstitution; DNA translocation, signal:noise
T3 construct: not shown: C-terminal Strep tag
T3 chain: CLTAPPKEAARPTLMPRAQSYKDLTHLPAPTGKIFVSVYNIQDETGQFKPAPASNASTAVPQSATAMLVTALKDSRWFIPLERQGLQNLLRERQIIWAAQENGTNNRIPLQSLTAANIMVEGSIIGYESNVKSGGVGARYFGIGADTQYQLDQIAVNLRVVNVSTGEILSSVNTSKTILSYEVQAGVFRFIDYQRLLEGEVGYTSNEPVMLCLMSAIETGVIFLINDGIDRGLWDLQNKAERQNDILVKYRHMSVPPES

[4] = target: T4, CsgG Y51A/F56V/N91R/K94Q/R97W-del(V105-I107) pore (E. coli, UniProt P0AEA2 16-277); assay: pore 6; in vitro reconstitution; DNA translocation, signal:noise
T4 chain: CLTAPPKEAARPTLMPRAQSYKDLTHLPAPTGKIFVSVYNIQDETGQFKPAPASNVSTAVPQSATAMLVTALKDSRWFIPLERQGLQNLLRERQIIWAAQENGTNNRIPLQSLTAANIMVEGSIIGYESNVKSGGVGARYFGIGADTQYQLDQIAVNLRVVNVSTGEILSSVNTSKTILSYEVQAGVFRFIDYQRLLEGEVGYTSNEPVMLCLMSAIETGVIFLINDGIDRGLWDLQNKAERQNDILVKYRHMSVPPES

[5] = target: T5, CsgG Y51S/N55A/F56Q/N91R/K94Q/R97W-del(V105-I107) pore (E. coli, UniProt P0AEA2 16-277); assay: pore 7; in vitro reconstitution; DNA translocation, signal:noise
T5 chain: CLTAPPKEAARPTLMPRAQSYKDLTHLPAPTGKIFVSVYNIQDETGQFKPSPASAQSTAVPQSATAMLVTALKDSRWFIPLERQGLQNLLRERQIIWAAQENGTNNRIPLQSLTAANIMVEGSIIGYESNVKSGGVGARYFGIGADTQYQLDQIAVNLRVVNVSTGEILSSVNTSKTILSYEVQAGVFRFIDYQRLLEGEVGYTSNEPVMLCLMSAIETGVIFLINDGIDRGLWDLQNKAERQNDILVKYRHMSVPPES

[6] = target: T6, CsgG Y51S/N55V/F56Q/N91R/K94Q/R97W-del(V105-I107) pore containing the C terminal strep tag (E. coli, UniProt P0AEA2 16-277); assay: pore 8; in vitro reconstitution; DNA translocation, signal:noise
T6 construct: also called Y515/N55V/F56Q/N91R/K94Q/R97W-del(V105-I107) (sic); not shown: C-terminal Strep tag
T6 chain: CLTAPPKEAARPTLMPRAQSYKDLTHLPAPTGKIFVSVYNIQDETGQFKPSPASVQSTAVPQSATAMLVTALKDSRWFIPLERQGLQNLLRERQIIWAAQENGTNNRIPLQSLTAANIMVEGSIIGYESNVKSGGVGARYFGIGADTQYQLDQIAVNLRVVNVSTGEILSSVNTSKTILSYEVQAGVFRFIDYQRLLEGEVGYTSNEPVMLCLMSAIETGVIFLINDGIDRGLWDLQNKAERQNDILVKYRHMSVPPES

[7] = target: T7, CsgG Y51T/N55V/F56Q/N91R/K94Q/R97W-del(V105-I107) pore containing the C terminal strep tag (E. coli, UniProt P0AEA2 16-277); assay: pore 9; in vitro reconstitution; DNA translocation, signal:noise
T7 construct: not shown: C-terminal Strep tag
T7 chain: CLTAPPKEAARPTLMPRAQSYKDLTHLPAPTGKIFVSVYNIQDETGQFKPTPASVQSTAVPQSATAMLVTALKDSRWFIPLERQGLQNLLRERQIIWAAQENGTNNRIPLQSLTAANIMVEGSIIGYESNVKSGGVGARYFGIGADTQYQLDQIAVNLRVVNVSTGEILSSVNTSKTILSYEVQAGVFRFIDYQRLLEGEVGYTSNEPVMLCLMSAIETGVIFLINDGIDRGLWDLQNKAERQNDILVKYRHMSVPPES

[8] = target: T8, CsgG Y51A/F56Q/N91R/K94Q/R97W/R192D-del(V105-I107) pore (E. coli, UniProt P0AEA2 16-277); assay: last panel; reader head discrimination from DNA translocation
T8 chain: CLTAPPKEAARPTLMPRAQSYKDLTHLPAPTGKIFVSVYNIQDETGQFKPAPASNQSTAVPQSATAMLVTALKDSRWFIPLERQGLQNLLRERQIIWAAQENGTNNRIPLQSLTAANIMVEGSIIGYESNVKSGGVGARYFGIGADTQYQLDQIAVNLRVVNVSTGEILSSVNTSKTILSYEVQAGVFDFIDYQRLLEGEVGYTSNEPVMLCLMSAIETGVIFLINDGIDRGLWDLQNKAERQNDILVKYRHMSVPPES

Measured: binding result

GTMTFQFRNPNFGGNPNNGAFLLNSAQAQNSYKDP (also called CsgF (1-35) peptide) [CsgF-(1-35) synthetic peptide]
not listed: [8]
binds: all other assays above

GTMTFQFRNPNFGGNPSNGAFLLNSAQAQNSYKDPSYNDDFGIET [CsgF-N17S-(1-45) peptide]
binds: [8]
